For test [1], the target named is Variant I: V221S+N222S+Q223T (Humicola insolens).
Test [2] has as its target Variant II: V240P+Q241P (Humicola insolens).
In test [3] the target is Humicola insolens 43 kD endoglucanase (Humicola insolens).

Take “Savinase protease (from UniProt P29600) (enzyme)”: the Residual Activity, % DAA (25° C., 5 d storage in liquid detergent with protease) stood at 83 % DAA in test [1], 81 % DAA in test [2] and 63 % DAA in test [3].

The values are drawn from patent publication US6114296.
